# Reference: US20010006793A1, “MODULATORS OF EUKARYOTIC CASPASES” (priority 1998, published 2001)
# B1: Viral protein p35: known viral protein caspase inhibitor, expressed from YCpGAL1-p35-U vector (protein)
# chain: MCVIFPVEIDVSQTIIRDCQVDKQTRELVYINKIMNTQLTKPVLMMFNISGPIRSVTRKNNNLRDRIKSKVDEQFDQLERDYSDQMDGFHDSIKYFKDEHYSVSCQNGSVLKSKFAKILKSHDYTDKKSIEAYEKYCLPKLVDERNDYYVAVCVLKPGFENGSNQVLSFEYNPIGNKVIVPFAHEINDTGLYEYDVVAYVDSVQFDGEQFEEFVQSLILPSSFKNSEKVLYYNEASKNKSMIYKALEFTTESSWGKSEKYNWKIFCNGFIYDKKSKVLYVKLHNVTSALNKNVILNTIK
# B2: Human hnRNP D: product encoded by human brain cDNA, identified as caspase inhibitor (protein, UniProt Q14103 2-355, looked up)
# Heterogeneous nuclear …: SEEQFGGDGAAAAATAAVGGSAGEQEGAMVAATQGAAAAAGSGAGTGGGTASGGTEGGSAESEGAKIDASKNEEDEGHSNSSPRHSEAATAQREEWKMFIGGLSWDTTKKDLKDYFSKFGEVVDCTLKLDPITGRSRGFGFVLFKESESVDKVMDQKEHKLNGKVIDPKRAKAMKTKEPVKKIFVGGLSPDTPEEKIREYFGGFGEVESIELPMDNKTNKRRGFCFITFKEEEPVKKIMEKKYHNVGLSKCEIKVAMSKEQYQQQQQWGSRGGFAGRARGRGGGPSQNWNQGYSNYWNQGYGNYGYNSQGYGGYGGYDYTGYNNYYGYGDYSNQQSGYGKVSRRGGHQNSYKPY
# B3: Human Myelin Basic Protein: product encoded by human brain cDNA, identified as caspase inhibitor (protein)
# chain: MASQKRPSQRHGSKYLATASTMDHARHGFLPRHRDTGILDSIGRFFGGDRGAPKRGSGKDSHHPARTAHYGSLPQKSHGRTQDENPVVHFFKNIVTPRTPPPSQGKGRGLSLSRFSWGAEGQRPGFGYGGRASDYKSAHKGFKGVDAQGTLSKIFKLGGRDSRSGSPMARR
# B4: Human Death Associated Protein 1: product encoded by human brain cDNA; also known as DAP-1 (protein)
# chain: MSSPPEGKLETKAGHPPAVKAGGMRIVQKHPHTGDTKEEKDKDDQEWESPSPPKPTVFISGVIARGDKDFPPAAAQVAHQKPHASMDKHPSPRTQHIQQPRK
# B5: Human Ubiquitin C-terminal Hydrolase: product encoded by human brain cDNA; also known as UHX1 (protein)
# chain: MAVAPRLFGGLCFRFRDQNPEVAVEGRLPISHSCVGCRRERTAMATVAANPAAAAAAVAAAAAVTEDREPQHEELPGLDSQWRQIENGESGRERPLRAGESWFLVEKHWYKQWEAYVQGGDQDSSTFPGCINNATLFQDEINWRLKEGLVEGEDYVLLPAAAWHYLVSWYGLEHGQPPIERKVIELPNIQKVEVYPVELLLVRHNDLGKSHTVQFSHTDSIGLVLRTARERFLVEPQEDTRLWAKNSEGSLDRLYDTHITVLDAALETGQLIIMETRKKDGTWPSAQLHVMNNNMSEEDEDFKGQPGICGLTNLGNTCFMNSALQCLSNVPQLTEYFLNNCYLEELNFRNPLGMKGEIAEAYADLVKQAWSGHHRSIVPHVFKNKVGHFASQFLGYQQHDSQELLSFLLDGLHEDLNRVKKKEYVELCDAAGRPDQEVAQEAWQNHKRRNDSVIVDTFHGLFKSTLVCPDCGNVSVTFDPFCYLSVPLPISHKRVLEVFFIPMDPRRKPEQHRLVVPKKGKISDLCVALSKHTGISPERMMVADVFSHRFYKLYQLEEPLSSILDRDDIFVYEVSGRIEAIEGSREDIVVPVYLRERTPARDYNNSYYGLMLFGHPLLVSVPRDRFTWEGLYNVLMYRLSRYVTKPNSDDEDDGDEKEDDEEDKDDVPGPSTGGSLRDPEPEQAGPSSGVTNRCPFLLDNCLGTSQWPPRRRRKQLFTLQTVNSNGTSDRTTSPEEVHAQPYIAIDWEPEMKKRYYDEVEAEGYVKHDCVGYVMKKAPVRLQECIELFTTVETLEKENPWYCPSCKQHQLATKKLDLWMLPEILIIHLKRFSYTKFSREKLDTLVEFPIRDLDFSEFVIQPQNESNPELYKYDLIAVSNHYGGMRDGHYTTFACNKDSGQWHYFDDNSVSPVNENQIESKAAYVLFYQRQDVARRLLSPAGSSGAPASPACSSPPSSEFMDVN
# B6: Human Tissue Inhibitor of Metalloprotease-3: product encoded by human brain cDNA, identified as caspase inhibitor (protein)
# chain: CTCSPSHPQDAFCNSDIVIRAKVVGKKLVKEGPFGTLVYTIKQMKMYRGFTKMPHVQYIHTEASESLCGLKLEVNKYQYLLTGRVYDGKMYTGLCNFVERWDQLTLSQRKGLNYRYHLGCNCKIKSCYYLPCFVTSKNECLWTDMLSNFGYPGYQSKHYACIRQKGGYCSWYRGWAPPDKSIINATDP
# B7: Glutamate-Binding Subunit of a Human NMDA Receptor Complex: product encoded by human brain cDNA, identified as caspase inhibitor (protein)
# chain: MSHEKSFLVSGDNYPPPNPGYPGGPQPPMPPYAQPPYPGAPYPQPPFQPSPYGQPGYPHGPSPYPQGGYPQGPYPQGGYPQGPYPQEGYPQGPYPQGGYPQGPYPQSPFPPNPYGQPQVFPGQDPDSPQHGNYQEEGPPSYYDNQDFPATNWDDKSIRQAFIRKVFLVLTLQLSVTLSTVSVFTFVAEVKGFVRENVWTYYVSYAVFFISLIVLSCCGDFRRKHPWNLVALSVLTASLSYMVGMIASFYNTEAVIMAVGITTAVCFTVVIFSMQTRYDFTSCMGVLLVSMVVLFIFAILCIFIRNRILEIVYASLGALLFTCFLAVDTQLLLGNKQLSLSPEEYVFAALNLYTDIINIFLYILTIIGRAKE
# Biological target: T1, human caspase-8β (Homo sapiens, UniProt Q14790)
# T1 construct: expressed in transfected cells; host or cells: Saccharomyces cerevisiae FY250, single-copy ARS/CEN vector YCpGAL1-caspase-8β-L, GAL1 promoter
# Assay: Yeast screening method: suppression of caspase-8β-induced lethality in S. cerevisiae FY250 double transformants on galactose medium
# Format: cell-based
# Details: FY250 co-transformed with YCpGAL1-p35-U and YCpGAL1-caspase-8β-L; SC-leucine-uracil medium with galactose
# Excerpt: The invention includes a screening method of determining whether a compound is a caspase modulator. […] A difference between the viability indicator of the first cell and the viability indicator of the second cell is an indication that the compound is a caspase modulator.
# As described herein, the transformant expresses the caspase when an inducer of the inducible promoter of the caspase vector is provided to the caspase transformant. When the caspase transformant expresses the caspase, cytotoxicity ensues in the caspase transformant. If an inhibitor of the caspase is provided to the caspase transformant prior to the onset of cytotoxicity, the caspase transformant may be enabled to survive expression of the caspase or the onset of cytotoxicity may be delayed.
# The gene encoding p35 was cloned into a yeast-based expression vector designated YCpGAL1-U (wherein U designates a URA3 selectable marker) to yield a YCpGAL1-p35-U inhibitor vector. Yeast cells were co-transformed with the inhibitor vector, YCpGAL1-p35-U, and with the caspase vector, YCpGAL1-caspase-8β-L, to yield a double transformant. Double transformants were plated on SC-leucine-uracil medium supplemented with dextrose to repress GAL1 promoter function. Serial ten-fold dilutions of individual double transformants grown in SC-leucine-uracil medium containing dextrose were prepared and spotted onto SC-leucine-uracil medium comprising dextrose or galactose.
# Individual viable colonies of double transformant are isolated, and the test vector comprising the unknown cDNA is isolated.
# The screening method used in this Example was performed as follows. A yeast double transformant was prepared by transforming S. cerevisiae strain FY250 with two yeast expression vectors. The first yeast expression vector comprised cDNA encoding a self-activating form of human caspase-8β operably linked to a GAL1 promoter and a LEU2 selectable marker. This first vector was a single copy vector and was designated YCpGAL1-caspase-8β-L. A plurality of second yeast expression vectors was used, each comprising a single random human cDNA sequence operably linked to a GAL1 promoter and a URA3 selectable marker. The cDNA sequences used to generate the plurality of second yeast expression vectors were obtained from a library of cDNAs prepared from human brain cells. The second vectors were multicopy vectors.
# Double transformants were propagated on plates containing SC-leucine-uracil agar comprising dextrose. Colonies of double transformants were replica plated on plates containing medium comprising galactose, whereby expression of caspase-8β and of any product encoded by the cDNA of the second vector was induced. […] The second vector was recovered from individual colonies of double transformants which were able to survive on the galactose-containing medium and used, along with the first vector, to transform fresh FY250 cells. […] The identity of individual products encoded by the cDNA of individual second vectors was established by determining the nucleotide sequence of the cDNA and comparing the sequence with databases of known human gene sequences, including Genbank, the EST Database, and the Human Genome Database.
# T1 sequence (Q14790 1-464 isoform Q14790-2): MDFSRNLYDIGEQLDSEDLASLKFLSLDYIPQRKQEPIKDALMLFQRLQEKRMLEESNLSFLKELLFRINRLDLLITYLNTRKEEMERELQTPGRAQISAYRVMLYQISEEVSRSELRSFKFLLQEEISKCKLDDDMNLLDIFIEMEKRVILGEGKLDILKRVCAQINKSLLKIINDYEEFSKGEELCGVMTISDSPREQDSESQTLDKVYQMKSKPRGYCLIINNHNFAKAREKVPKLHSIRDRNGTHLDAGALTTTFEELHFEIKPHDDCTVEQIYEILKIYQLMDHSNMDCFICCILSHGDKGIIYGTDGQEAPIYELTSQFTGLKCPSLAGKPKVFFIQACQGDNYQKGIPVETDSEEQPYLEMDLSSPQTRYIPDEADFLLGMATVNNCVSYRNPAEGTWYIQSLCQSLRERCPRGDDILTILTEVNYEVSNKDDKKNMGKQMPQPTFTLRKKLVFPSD
row,Molecule,survival of double transformants on galactose-containing test medium
1,B1,survived on this medium

# Same assay, conditions: FY250 double transformants, GAL1-driven expression, galactose-containing medium
row,Molecule,identified as a caspase inhibitor (product of human brain cDNA suppressing caspase-8β-induced cell death)
1,B2,caspase inhibitor
2,B3,caspase inhibitor
3,B4,caspase inhibitor
4,B5,caspase inhibitor
5,B6,caspase inhibitor

# Same assay, conditions: Table 1 Caspase Modulators; identified using the screening method of the invention
row,Molecule,Caspase Inhibitor
1,B2,✓
2,B3,✓
3,B4,✓
4,B5,✓
5,B7,✓
6,B1,✓
7,B6,✓
